Test results: patent publication US6372892

Target: recombinant human IL-1β (human) (UniProt P01584)
Experiment: cell-based or functional assay

UniProt P01584, sequence (P01584 117-269 limits assumed): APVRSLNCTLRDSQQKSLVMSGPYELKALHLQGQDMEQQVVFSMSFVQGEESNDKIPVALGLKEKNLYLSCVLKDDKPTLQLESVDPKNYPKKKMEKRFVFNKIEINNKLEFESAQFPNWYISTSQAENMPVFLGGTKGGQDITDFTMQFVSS

- IL-1β induced PGE2 production in human fibroblasts (CCD 1098), PGE2 ELISA; IL-1 Hy2 at 1000 fold excess: 40 to 60 % inhibition
Substance: IL-1 Hy2 (from UniProt Q8WWZ1 1-152) (ligand)
